Test results as given in paper PMC11117730, “A Novel Bifunctional Fusion Protein (Anti-IL-17A-sST2) Protects against Acute Liver Failure, Modulating the TLR4/MyD88 Pathway and NLRP3 Inflammasome Activation” (Biomedicines, 2024).

Molecular target: T1, sST2-Fc (mouse, UniProt P14719 27-332)
T1 construct: mouse ST2L (IL-33 receptor), amino acids 27-332, cloned into a pTT5 vector that contains the human IgG4 Fc domain; also called soluble ST2 Fc fusion
T1 sequence (looked up): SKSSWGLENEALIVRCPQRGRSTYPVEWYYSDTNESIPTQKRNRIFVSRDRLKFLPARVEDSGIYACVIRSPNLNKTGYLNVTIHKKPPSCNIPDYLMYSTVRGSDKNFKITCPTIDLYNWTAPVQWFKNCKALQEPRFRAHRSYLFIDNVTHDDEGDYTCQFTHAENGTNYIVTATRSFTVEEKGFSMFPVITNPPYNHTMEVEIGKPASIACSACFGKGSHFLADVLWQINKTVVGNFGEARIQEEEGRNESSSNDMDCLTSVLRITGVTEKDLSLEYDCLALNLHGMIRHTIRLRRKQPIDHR
Assay: SPR; Biacore T200; antigen (mouse IL-33) immobilised on CM5 by amine coupling; proteins flowed in a 2-fold dilution series for 120 s, dissociation 480 s
Settings: both partners purified

B1: mouse IL-33 (ligand)
chain: SIQGTSLLTQSPASLSTYNDQSVSFVLENGCYVINVDDSGKDQEQDQVLLRYYESPCPASQSGDGVDGKKLMVNMSPIKDTDIWLHANDKDYSVELQRGDVSPPEQAFFVLHKKSSDFVSFECKNLPGTYIGVKDNQLALVEEKDESCNNIMFKLSKI
Kd: 0.174 nM
